This is an account of results in PMC8062489, “Tgf-β1 transcriptionally promotes 90K expression: possible implications for cancer progression”.

The target in this data set is rUSF1 (recombinant His-USF1) (UniProt P22415 1-310). In words: EMSA; 20 mM HEPES (pH not stated), 0.1% NP40, 5 mM MgCl2, 50 mM KCl, 2% glycerol, 2 mM DTT, 50 ng/ml poly(dI-dC), room temperature, 20 ul, 5 ug nuclear extract; 5% native PAGE in 1x TBE. The settings on record: protein: recombinant; tags: N-terminal His-tag; chain copies: 2; label: 5'-32P as probe; blunt. A general note: A gel shift assay detects complexes by their altered migration in electrophoresis.
Chain of rUSF1 (recombinant His-USF1) (P22415 whole entry): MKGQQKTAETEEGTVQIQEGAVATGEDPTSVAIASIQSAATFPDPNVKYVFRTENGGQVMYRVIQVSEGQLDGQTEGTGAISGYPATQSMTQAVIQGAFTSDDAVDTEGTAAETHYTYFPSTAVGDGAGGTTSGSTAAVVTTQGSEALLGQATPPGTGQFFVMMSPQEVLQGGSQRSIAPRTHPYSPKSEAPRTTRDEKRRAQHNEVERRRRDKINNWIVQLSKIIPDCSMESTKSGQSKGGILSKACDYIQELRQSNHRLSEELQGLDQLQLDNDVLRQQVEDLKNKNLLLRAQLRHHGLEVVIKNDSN

B1: Oligo I (dsDNA)
DNA 1: GCAGCCTCCGTCATGTGTTTTCTGGA
DNA 2: TCCAGAAAACACATGACGGAGGCTGC
With B1, the binding result is “binds”.

B2: EWT (E, consensus E-box) (dsDNA)
DNA 1: GGAAGCAGACCACGTGGTCTGCTT
DNA 2: AAGCAGACCACGTGGTCTGCTTCC
B2: the binding result is “binds”.
